The source of these data is US20220227882A1 (TRUSTEES OF TUFTS COLLEGE, published 2022).

Assay [1] has as its target T1, A462S (Homo sapiens, UniProt P78325).
T1 construct: expressed on HEK293 cells; also called human ADAM8 point mutant A462S
T1 sequence (ADAM8, looked up): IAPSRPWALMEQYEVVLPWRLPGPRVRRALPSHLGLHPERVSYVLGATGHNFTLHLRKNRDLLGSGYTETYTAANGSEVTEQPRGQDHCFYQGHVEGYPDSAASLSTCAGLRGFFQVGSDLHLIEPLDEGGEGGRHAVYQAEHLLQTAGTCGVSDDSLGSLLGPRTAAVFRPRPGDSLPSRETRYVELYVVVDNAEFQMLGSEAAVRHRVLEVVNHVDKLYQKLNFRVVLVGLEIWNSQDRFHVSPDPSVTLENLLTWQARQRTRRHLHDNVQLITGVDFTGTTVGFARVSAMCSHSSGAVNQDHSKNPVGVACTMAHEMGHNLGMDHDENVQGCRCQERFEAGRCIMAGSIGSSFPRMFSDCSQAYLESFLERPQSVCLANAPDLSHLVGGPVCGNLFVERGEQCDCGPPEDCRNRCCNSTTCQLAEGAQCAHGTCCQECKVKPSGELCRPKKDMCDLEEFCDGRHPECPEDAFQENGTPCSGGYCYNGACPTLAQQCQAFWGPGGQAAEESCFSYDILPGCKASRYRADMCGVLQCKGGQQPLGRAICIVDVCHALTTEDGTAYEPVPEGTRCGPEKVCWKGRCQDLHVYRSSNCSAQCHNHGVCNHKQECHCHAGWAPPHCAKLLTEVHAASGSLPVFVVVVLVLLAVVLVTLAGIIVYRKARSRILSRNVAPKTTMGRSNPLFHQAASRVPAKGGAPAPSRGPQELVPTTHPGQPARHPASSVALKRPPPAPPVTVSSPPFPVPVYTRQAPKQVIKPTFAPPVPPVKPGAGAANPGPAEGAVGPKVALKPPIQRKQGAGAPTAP
Kind of assay: high-throughput flow cytometry, HEK293 cells with mutant ADAM8, high stringency; range in parentheses; dotted box. As for the experimental part: (§1) A variety of experimental parameters were optimized for high-throughput flow cytometry including blocking buffer, and primary and secondary antibody concentrations, to identify the optimal conditions for screening. Through these studies ADP2 and ADP13 were determined to be high affinity binding antibodies.
(§2) Thus, for these studies antigen-binding fragments (Fabs) of ADP2 and ADP13, which bind with lower affinity than the full antibody, were generated. In addition, higher binding stringency conditions were tested, such as increased pH, salinity, and temperature, and/or increased washing, to weaken binding sufficiently to allow identification of critical binding residues in flow cytometry. The final experimental flow cytometry conditions were: primary antibody incubation with ADP2 Fab (0.50 μg/ml), ADP13 Fab (5.00 μg/ml) and Control Ab (0.16 μg/ml) for 60 minutes in flow cytometry buffer containing 10% goat serum in PBS (Ca²⁺ and Mg²⁺ free). […] Samples were washed three times after primary antibody incubation and twice after secondary antibody incubation with PBS (Ca²⁺ and Mg′ free). Next, HEK293 cells expressing WT or mutated ADAM8 proteins or EV DNA were incubated with ADP2 or ADP13 Fabs or Control Ab at their optimal concentrations. Fab binding was detected using Alexa Fluor 488-conjugated secondary antibodies and mean cellular fluorescence determined using the Intellicyt iQue flow cytometry platform. […] This counter-screen strategy facilitates the exclusion of mutants that are locally misfolded or that have an expression defect. Binding of each test Fab to each mutant clone in the alanine scanning library was determined, in duplicate, by high-throughput flow cytometry.

Assay [2] deals with T2, G445A (Homo sapiens, UniProt P78325).
T2 construct: expressed on HEK293 cells; also called human ADAM8 point mutant G445A
T2 sequence (ADAM8, looked up): T1 sequence (ADAM8, looked up) with G429A, S446A
The description is as above. On the procedure:
as §1, §2

Positions count from the first letter of the chain named.

B1: ADP13 Fab (Fab, V domains shown)
VH: EVQLQQSGPEMVKPGTSVKISCKASGYTFTDYYINWVKQSHGKSLEWIGDISPNIGGATYNPKFKGKAILTVDKSARTAYMELRSLTSEDSAVYCCTRGGSSYPYFYAMDYWGQGTSVTVSS
VL: DIVMSQSPSSLAVSVGEKVTMSCKSSQSLLYSSNQKKYLAWYQQKPGQSPKLLIYWASTRESGVPDRFTGSGSGTDFTLTISSVKAEDLAVYYCQQFYSYPYTFGGGTKLEINR
B1: the “Binding Reactivity (% WT)” value in assay [1] turned out to be 24.7 % WT.

B2: ADP2 Fab (Fab, V domains shown)
VH: EVKLVESGGGLVQPGGSLSLSCAASGFSFPDYYMSWVRQPPGKALEWLGFIRDSANGYTTEYIASVKGRFTFSRDNSQSILYLQMNALRAEDSATYYCARYSRYYGMDYWGQGTSVTVSS
VL: SIVMTQTPKILLVSAGDRVTITCKASQTVNYDVAWYQQKPGQSPKPVIYFASNRYTGVPDRFTGSGFGTDFTFTISTVQAEDLAVYFCQQDYSAPWTFGGGTKLEIK
As to B2, the “Binding Reactivity (% WT)” value in assay [2] was found to be 30.7 % WT.
